Where a chain is given by its changes, count along the chain named.
T1: Kp FimHLD
T1 chain: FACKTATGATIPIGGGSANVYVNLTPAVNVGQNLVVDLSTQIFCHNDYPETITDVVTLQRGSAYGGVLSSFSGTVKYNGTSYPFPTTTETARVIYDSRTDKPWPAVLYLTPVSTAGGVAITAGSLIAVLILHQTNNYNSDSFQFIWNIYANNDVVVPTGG

T2: Ec FmlHLD
T2 chain: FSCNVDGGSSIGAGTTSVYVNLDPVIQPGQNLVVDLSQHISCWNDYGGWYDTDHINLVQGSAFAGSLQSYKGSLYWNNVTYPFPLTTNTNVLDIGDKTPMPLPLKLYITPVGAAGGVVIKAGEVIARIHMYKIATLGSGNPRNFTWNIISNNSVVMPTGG

B1: 2G04 (antibody, V domains shown)
VH: EVQLQQPGPELVKPGSSLKISCKASGYTFTDYFINWVKQRPGQGLDWIGWIFPGSGSTYYNDKFKGKATLTVDKSSSTAYMLLSSLTSEASAVYFCARWDSDSTYWYFDVWGTGTTVTVSS
VL: QIVLTQSPALMAASPGEKVTITCSVNSSISSSTLHWYQQKSQTSPKPWIYGTSNLASGVPIRFSGSGSGTSYSLTISSMEAEDAATYYCQQWSTYPYTFGGGTKLEIKR
B2: Kp 1C01 (antibody, V domains shown)
VH: EVQLQQPGPVLVKPGPSVKISCKASGFTFTDYYMHWVKQSHGKSLEWIGLVSPYNGGTFYNQKFKGKATLTVDTSSSTAYMELNSLTSEDSAVYYCARVGNSYVHYAMDYWGQGTSVTVSS
VL: B1 VL with N26S, T33N, Q42E, I61V, T94N
B3: Kp 2E08 (antibody, V domains shown)
VH: EVQLQQPGAELAKPGASVKLSCKASGYNFTSYWMHWVKQRPGQGLEWIGLIHPNSGGTYYNEKFKSKATLTLDRSSSTAYMQLSSLTSEDSAVYYCARFEEEWGGYWYFDVWGTGTTVTVSS
VL: B1 VL with N26S, T33N, Q42E, I61V, T94S
B4: Kp 2G02 (antibody, V domains shown)
VH: EVQLQQSGPVLVKPGPSVKISCKASGFTFTDYYMHWVKQSHGKSLEWIGLVYPYNGGTYYNQKFKGKATLTVDTSSSTAYMELNSLTSEDSAVYYCVRLGNGSSNEWYFDVWGTGTTVTVSS
VL: B1 VL with N26S, S32Y, T33N, Q42E, I61V, S93R, Y97W
B5: Ec1 F7 (antibody, V domains shown)
VH: EVQLQQPGPVLVKPGPSVKISCKASGFTFTDYFIHWVKQSHGKSLEWIGLVSPYNGGTYYNQQFKGKATLTVDTSSSTAYMDLNSLTSEDSAVYYCTRLLRGYWYFDVWGTGTTVTVSS
VL: B1 VL with N26S, S30G, T33N, Q42E, I61V
B6: Kp1 2E02 (antibody, V domains shown)
VH: EVQLQQSGPVLVKPGPSVKISCKASGFTFTDYYIHWVKRSHGKSLEWIGLVSPYNGGTFYNQKFKGKATLTVDTSSNTAYMELTSLTSEDSAVYYCARLGVNWYFDVWGTGTTVTVSS
VL: B1 VL with I21L, N26S, Q42E, I61V
B7: Ec E7 (antibody, V domains shown)
VH: EVQLQQSGAELVKPGASVKVSCKASGYSFTNYWVHWVKQRPGQGLEWIGRIYSSDGDSNYNQKFKGKATLTVDKSSSTAYMQLSSLTSEDSAVYYCAIEGNLYFDYWGQGTTLTVSS
VL: DIVLTQSPASLAVSLGQRATISCRASQSVSTSSYSYMHWYQQKPGQPPKFLIKYASNLESGVPARFSGSGSGTDFTLNIHPVEEEDTATYYCQHSWEIPLTFGAGTKLKLKR
B8: Kp 1B02 (antibody, V domains shown)
VH: EVQLQQSGAELVRPGSSVKMSCKTSGYTFTFYGINWVKQRPGQGLEWIGYIYVGNGYSEYNEKFKVKATLTSDTSSSTAYMQLSGLTSEDSAIYFCARSDGYNYFDYWGQGTTLTVSS
VL: QIVLTQSPAILSASPGEKVTMTCRASSSLHYMHWYQQKTGSSPKPWIYATSNLASGVPARFSGSGSGTSYSLTISRVEAEDTATYYCQQWSSNPPTFGAGTKLELKR
B9: Ec F11 (antibody, V domains shown)
VH: QVQLKESGPGLVAPSQSLSITCTVSGFSLTNYAISWVRQPPGKGLEWLGIIWTGGGTLYNSALKSRPSISKDNSKSQVFLKMNSLQTDDTARYYCARAYYSNYDWYFDVWDTGTTVTVSS
VL: DIQMTQSPSSLSASLGDRVTISCSASQGISNYLNWYQQKPDGTVKLLIYYTSSLHSGVPSRFSGSGSGTDYSLTISNLEPEDIATYYCQQYSQVPYTFGGGTKLEIKR
B10: Ec C12 (antibody, V domains shown)
VH: B9 VH with E6Q, P67L
VL: B9 VL
B11: Kp2 2C07 (antibody, V domains shown)
VH: EVKLVESGEGLVKPGGSLKLSCAASGFTFSSYAMSWVRQTPEKRLDWVAYISSGGDHIYYADTVKGRFTISRDNARNTLYLQMSSLKSEDTAMYYCTRDTGYYVSRYFDVWGTGTTVTVSS
VL: DIVMTQSQKFMSTSVGDRVSVTCKASQNVVTNVAWYQQKSGQSPKVVIYSASFRSSGVPDRFTGSGSGTDFTLTISNVQSEDLAEYFCHQYNSHPLTFGGGTKLEIKR
B12: Kp 2C09 (antibody, V domains shown)
VH: B11 VH with K3M, G10D, A23I, D46E, H57Y, A61T, Y80F
VL: B11 VL with V30G, S40P, V46A, V47L, S55N, S93N, H94Y
B13: Ec A2 (antibody, V domains shown)
VH: EVQLQQSGAEQVRPGASVKMSCKASGYTFTTYNMNWMKQTPGQGLEWIGVIYPGNGDISYNQKFKGKATLTVDKSSSTAYMQLSSLTSEDSAVYFCAREGDYGPWFAYWGQGTLVTVSA
VL: QIVLTQSPAIMSASPGEKVTMTCRASSSVSSSYLHWYQQKSGASPKFWIYSTSKLASGVPARFSGSGSGTSYSLTISSVEAEDAATYYCQHYSRYPLTFGGGTKLEIKR
B14: Ec3 B7 (antibody, V domains shown)
VH: EVQLQQPGAELVRPGASVKMSCKASGYTFTIYNLHWVKQTPRQGLEWIGTIYPGDGDTSYNQKFKGKATLTVDKSSSTAYMQLSNLTSEDSAVYFCAREGDYGPWFAYWGQGTLVTVSA
VL: B13 VL with F47L, T52S, K54N, S77N, S93G, R94S
B15: Kp 2D07 (antibody, V domains shown)
VH: EVQLQQSGPELVRPGASVKISCKASGYTFTDYYIHWLKQRPGQGLEWIGLIFPGSGSIYCNEKFKGKATLTVDKSSTTAYMLLSSLTSEDSAVYFCARWETTAWYFDVWGTGTTVTVSS
VL: QIVLTQSPAILSASPGEKVTMTCRASLSVSYMHWYQQKPGSSPKPWIYATSNLASGVPARFSGSGSGTSYSLTVSRVEAEDAATYYCQQWRSYPYTFGGGTKLEIKR
B16: Kp 1A09 (antibody, V domains shown)
VH: EVQLQQPGAELVKPGASVKLSCKASGYTFTSYWMHWVKQRPGQGLEWIGLIHPNSGSTYYNEKFKNKATLTVDKSSSTAYMQLSSLTSEDSAVYYCARWDDSYWYFKVWGTGTTVTVSS
VL: B15 VL with L27S, V74I, R91S, Y93N
B17: Kp 2D04 (antibody, V domains shown)
VH: B8 VH with S7P, A9G, S58T
VL: B8 VL with S12T, L29V, T39P, Q88H, L105I
B18: Kp 1D09 (antibody, V domains shown)
VH: EVQLQQPGAELVKPGASVKLSCKASGYTFTNYWIHWMKQRPGRGLEWIGRIEPNSGDTKYNEKIKSRATLTVDKPSSTAYMQLSSLTSEDSAVYYCARSGYDYPEAWGQGTTLTVSS
VL: DIVLTQSPASLAVSPGQRATISCRASEGVEYYGTTLMQWYQQKPGQPPKLLIYAASNVESGVPARFSGSGSGTDFSLNIHPVEEDDIAMYFCQQSRKVSWTFGGGTKLEIKR
B19: Kp 2B06 (antibody, V domains shown)
VH: EVQLQQPGAELVKPGASVKLSCKASGYTFTNYWMHWVKHRPGRGLEWIGRIDPNSGGTKYNEKFKNKATLTVDNPSSTGYMQLSSLTSEDSAVYYCTRSGYDYPDYWGQGTTLTVSS
VL: B18 VL with P15L, G28S, T35S, L50V, E59D, A64P, I79F, S99P
B20: Kp 1B07 (antibody, V domains shown)
VH: EVQLQQPGAELVKPGTSVKLSCKASGYTFTSYWMHWVKQRPGQGLEWIGMIHPNSGSTNYNEMFESKASLTVDKSSSTAYMQLSSLTSEDSAVYYCARIGYSGWGQGTSVTVSS
VL: DIVMTQSPSSLSVSAGEKVTMSCKSSQSLLNGGNQKNYLAWYQQKPGQPPKVLINGASTRESGVPDRFTGNGSGTDFTLTISSVQAEDLAVYYCQNDHTYPLTFGAGTKLELKR
B21: Kp 1E04 (antibody, V domains shown)
VH: EVQLQQSGAELVKPGASVKLSCKASGYTFTSYWVHWVRQRPGQGLEWIGMIHPNSGSTNYNEKFKSKATLTVDKSSSTAYMQLSSLTSEDSAVYYCASYYYGSSYYFDYWGQGTTLTVSS
VL: B20 VL with S12T, S14T, G32S, A40T, V52L, N55Y, G56W, N71S, H98Y, T99S

target: Ec FimHLD; test: ELISA

Binder | EC50 [µg/mL]
B1 | 0.0115
B2 | 0.0146
B3 | 0.0092
B4 | 0.015
B5 | 0.0109
B6 | 0.0127
B7 | 0.0266
B8 | 0.024
B9 | 0.0273
B10 | 0.0122
B11 | 0.013
B12 | 0.0129
B13 | 0.0131
B14 | 0.0241
B15 | 0.0129
B16 | 0.0135
B17 | 0.0121
B18 | 0.0227
B19 | 0.0092

Target: T1, Kp FimHLD
Test: ELISA

Binder | EC50 [µg/mL]
B1 | 0.0081
B2 | 0.0125
B3 | 0.0149
B4 | 0.0105
B5 | 0.0078
B6 | 0.0127
B20 | 0.0148
B21 | 0.731
B8 | 0.0166
B9 | 0.752
B11 | 0.0186
B12 | 0.0101
B13 | 0.0141
B14 | 0.0391
B15 | 0.0144
B16 | 0.0161
B17 | 0.0119
B18 | 0.0383
B19 | 0.0169

Target: T2, Ec FmlHLD
Test: ELISA

Binder | EC50 [µg/mL]
B1 | 2.89
B2 | 0.886
B4 | 0.0144
B5 | 0.0083
B6 | 0.0097
B15 | 0.0178
B16 | 0.018

— patent US20250304662A1 (published 2025)
